Positions count from the first letter of the chain named.
T1: HCoV-OC43-N protein (HCoV-OC43, UniProt P33469 1-448)
T1 construct: also called OC43-CoV N
T1 chain: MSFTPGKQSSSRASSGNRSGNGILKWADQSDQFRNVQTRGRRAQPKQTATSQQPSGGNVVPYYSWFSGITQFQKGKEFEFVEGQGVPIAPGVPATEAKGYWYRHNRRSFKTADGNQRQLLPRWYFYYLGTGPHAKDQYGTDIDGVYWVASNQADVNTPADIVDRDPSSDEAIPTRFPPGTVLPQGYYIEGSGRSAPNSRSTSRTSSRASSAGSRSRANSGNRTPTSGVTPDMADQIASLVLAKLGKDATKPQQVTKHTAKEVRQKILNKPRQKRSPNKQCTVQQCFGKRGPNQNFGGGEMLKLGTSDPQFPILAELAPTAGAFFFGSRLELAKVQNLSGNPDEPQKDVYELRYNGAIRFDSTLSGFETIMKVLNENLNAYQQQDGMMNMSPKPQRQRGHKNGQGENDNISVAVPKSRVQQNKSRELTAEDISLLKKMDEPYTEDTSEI

T2: HCoV-HKU1-N protein (HCoV-HKU1, UniProt Q5MQC6 1-441)
T2 construct: also called HKU1-CoV N
T2 chain: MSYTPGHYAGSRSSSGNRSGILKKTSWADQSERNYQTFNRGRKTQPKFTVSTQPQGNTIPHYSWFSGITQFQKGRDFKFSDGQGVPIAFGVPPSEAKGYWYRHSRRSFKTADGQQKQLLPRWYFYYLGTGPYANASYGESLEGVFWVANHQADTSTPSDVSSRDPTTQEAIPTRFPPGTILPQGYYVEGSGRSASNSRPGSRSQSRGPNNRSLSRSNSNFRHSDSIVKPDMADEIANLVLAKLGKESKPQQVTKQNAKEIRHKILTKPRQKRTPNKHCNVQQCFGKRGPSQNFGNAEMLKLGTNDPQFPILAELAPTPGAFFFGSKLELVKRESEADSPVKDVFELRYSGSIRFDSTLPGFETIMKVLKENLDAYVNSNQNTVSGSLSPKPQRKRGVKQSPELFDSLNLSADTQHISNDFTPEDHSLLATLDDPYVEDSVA

T3: HCoV-NL63-N protein (HCoV-NL63, UniProt Q6Q1R8 1-377)
T3 construct: also called NL63-CoV N
T3 sequence: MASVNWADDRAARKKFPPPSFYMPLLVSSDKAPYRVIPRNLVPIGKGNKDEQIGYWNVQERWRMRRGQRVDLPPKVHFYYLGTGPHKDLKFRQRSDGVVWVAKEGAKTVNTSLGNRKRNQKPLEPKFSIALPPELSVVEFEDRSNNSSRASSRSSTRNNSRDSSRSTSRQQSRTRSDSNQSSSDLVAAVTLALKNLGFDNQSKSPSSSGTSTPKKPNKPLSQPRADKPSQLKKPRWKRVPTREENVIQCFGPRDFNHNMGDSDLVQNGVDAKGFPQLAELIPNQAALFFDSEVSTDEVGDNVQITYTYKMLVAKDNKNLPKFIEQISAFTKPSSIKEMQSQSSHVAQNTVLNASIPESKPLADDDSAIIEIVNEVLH

B1: antibody #48 (antibody, V domains shown)
VH: EVQLVESGGGLVQPGGSLRLSCAASGFTISNFGIHWVRQAPGKGLEWVAGIWPYGGYTFYADSVKGRFTISADTSKNTAYLQMNSLRAEDTAVYYCARFDSYSYSGYMDYWGQGTLVTVSS
VL: DIQMTQSPSSLSASVGDRVTITCSGSSSNIGDNNVYWYQQKPGKAPKLLIFGPAYLYSGVPSRFSGSGSGTDFTLTISSLQPEDFATYYCAAGYSDNNGITFGQGTKVEIKR
notes: also called C48
B2: antibody #11 (antibody, V domains shown)
VH: EVQLVESGGGLVQPGGSLRLSCAASGFTIQDRMIHWVRQAPGKGLEWVASILPFLGATWYADSVKGRFTISADTSKNTAYLQMNSLRAEDTAVYYCARSWFSPFDYWGQGTLVTVSS
VL: DIQMTQSPSSLSASVGDRVTITCRASQDVGGSVAWYQQKPGKAPKLLISFPGGLYSGVPSRFSGSGSGTDFTLTISSLQPEDFATYYCQQYFSWPITFGQGTKVEIKR
notes: also called D11; C11
B3: antibody #21 (antibody, V domains shown)
VH: EVQLVESGGGLVQPGGSLRLSCAASGFTINNGSIHWVRQAPGKGLEWVAWIWPFGGYTYYADSVKGRFTISADTSKNTAYLQMNSLRAEDTAVYYCARGSYGYDYWGQGTLVTVSS
VL: DIQMTQSPSSLSASVGDRVTITCRASQDVGSNVAWYQQKPGKAPKLLIFSAPFLYSGVPSRFSGSGSGTDFTLTISSLQPEDFATYYCQQFYDWPLTFGQGTKVEIKR
notes: also called D21
B4: antibody #36 (antibody, V domains shown)
VH: B3 VH with N31R, G32Y, W50G, Y57D, Y59T, S100A, Y101T, G102S, Y103H
VL: DIQMTQSPSSLSASVGDRVTITCRASQDVTTTVAWYQQKPGKAPKLLINKGSWLYSGVPSRFSGSGSGTDFTLTISSLQPEDFATYYCQQYNKWPLTFGQGTKVEIKR
notes: also called IgG1#36; D36
B5: antibody #22 (antibody, V domains shown)
VH: B3 VH with N30S, N31S, W50S, Y59S, Y101F, Y103S
VL: B2 VL with G30D, G31D, S32N, F50S, P51S, G52S, Y91S, F92Y, S93N, W94G
notes: also called D22
B6: antibody #7 (antibody, V domains shown)
VH: EVQLVESGGGLVQPGGSLRLSCAASGFTIEDRWIHWVRQAPGKGLEWVASIWPMEGLTRYADSVKGRFTISADTSKNTAYLQMNSLRAEDTAVYYCARGYYGFDYWGQGTLVTVSS
VL: DIQMTQSPSSLSASVGDRVTITCRASQDVEARVAWYQQKPGKAPKLLIFTSTRLYSGVPSRFSGSGSGTDFTLTISSLQPEDFATYYCQQIMPLPTTFGQGTKVEIKR
notes: also called C07
B7: antibody #33 (antibody, V domains shown)
VH: B3 VH with S33G, W50G, G55W, Y57S, Y59S, Y103F
VL: B3 VL with G30Y, N32S, S50G, A51S, P52S, F91Y, L96I
notes: also called D33; C33

target: T4, SARS-CoV-1-N protein (SARS-CoV-1, UniProt P59595 1-422); experiment: ELISA, IgG1 on recombinant N protein
T4 construct: also called SARS-CoV N; SARS-CoV-N

Q: B1 was tested. Which EC50 did it give?
A: Its EC50 is 0.0186 µg/mL.

Q: How did the EC50 turn out when B2 was run?
A: Its EC50 is 0.0069 µg/mL.

Q: How did the EC50 turn out when B3 was run?
A: Its EC50 is 0.0214 µg/mL.

Q: For B4, which EC50 is on record?
A: The EC50 was 0.002 µg/mL.

Q: Which EC50 does the source give for B5 here?
A: The EC50 was 0.0039 µg/mL.

Q: For B6, which EC50 is on record?
A: The EC50 was 0.0037 µg/mL.

Q: How did the EC50 turn out when B7 was run?
A: The EC50 was 0.0016 µg/mL.

Target: T1, HCoV-OC43-N protein
Experiment: ELISA, IgG1 on recombinant N protein

Q: How did the EC50 turn out when B1 was run?
A: The EC50 was over 2 µg/mL.

Q: How did the EC50 turn out when B2 was run?
A: The EC50 was over 2 µg/mL.

Q: How did the EC50 turn out when B3 was run?
A: Its EC50 is over 2 µg/mL.

Q: Which EC50 does the source give for B4 here?
A: Its EC50 is over 2 µg/mL.

Q: For B5, which EC50 is on record?
A: The EC50 was over 2 µg/mL.

Q: How did the EC50 turn out when B6 was run?
A: Its EC50 is over 2 µg/mL.

Q: How did the EC50 turn out when B7 was run?
A: The EC50 was over 2 µg/mL.

Target: T2, HCoV-HKU1-N protein
Experiment: ELISA, IgG1 on recombinant N protein

Q: Which EC50 does the source give for B1 here?
A: The EC50 was over 2 µg/mL.

Q: Which EC50 does the source give for B2 here?
A: The EC50 was over 2 µg/mL.

Q: B3 was tested. Which EC50 did it give?
A: The EC50 was over 2 µg/mL.

Q: B4 was tested. Which EC50 did it give?
A: Its EC50 is over 2 µg/mL.

Q: For B5, which EC50 is on record?
A: The EC50 was over 2 µg/mL.

Q: With B6 as the binder, how does the EC50 read?
A: The EC50 was over 2 µg/mL.

Q: B7 was tested. Which EC50 did it give?
A: The EC50 was over 2 µg/mL.

target: T5, MERS-CoV-N protein (MERS-CoV, UniProt K9N4V7 1-411); experiment: ELISA, IgG1 on recombinant N protein
T5 construct: also called MERS-CoV nucleocapsid protein

Q: For B1, which EC50 is on record?
A: Its EC50 is over 2 µg/mL.

Q: Which EC50 does the source give for B2 here?
A: Its EC50 is over 2 µg/mL.

Q: Which EC50 does the source give for B3 here?
A: The EC50 was over 2 µg/mL.

Q: For B4, which EC50 is on record?
A: Its EC50 is over 2 µg/mL.

Q: For B5, which EC50 is on record?
A: The EC50 was over 2 µg/mL.

Q: With B6 as the binder, how does the EC50 read?
A: The EC50 was over 2 µg/mL.

Q: How did the EC50 turn out when B7 was run?
A: Its EC50 is over 2 µg/mL.

target: T3, HCoV-NL63-N protein; experiment: ELISA, IgG1 on recombinant N protein

Q: With B1 as the binder, how does the EC50 read?
A: The EC50 was over 2 µg/mL.

Q: B2 was tested. Which EC50 did it give?
A: The EC50 was over 2 µg/mL.

Q: With B3 as the binder, how does the EC50 read?
A: The EC50 was over 2 µg/mL.

Q: How did the EC50 turn out when B4 was run?
A: Its EC50 is over 2 µg/mL.

Q: For B5, which EC50 is on record?
A: The EC50 was over 2 µg/mL.

Q: With B6 as the binder, how does the EC50 read?
A: The EC50 was over 2 µg/mL.

Q: B7 was tested. Which EC50 did it give?
A: The EC50 was over 2 µg/mL.

target: T6, SARS-CoV-2-N protein (SARS-CoV-2, UniProt P0DTC9 1-419); experiment: ELISA, IgG1 on recombinant N protein
T6 construct: also called nucleocapsid protein of SARS-CoV-2

Q: With B1 as the binder, how does the EC50 read?
A: The EC50 was 0.0467 µg/mL.

Q: With B3 as the binder, how does the EC50 read?
A: Its EC50 is 0.018 µg/mL.

Q: Which EC50 does the source give for B4 here?
A: Its EC50 is 0.0008 µg/mL.

Q: B5 was tested. Which EC50 did it give?
A: The EC50 was 0.0044 µg/mL.

Q: Which EC50 does the source give for B6 here?
A: The EC50 was 0.0037 µg/mL.

Q: For B7, which EC50 is on record?
A: Its EC50 is 0.0014 µg/mL.

target: T6, SARS-CoV-2-N protein; experiment: not given

Q: With B1 as the binder, how does the EC50 read?
A: The EC50 was 0.0207 µg/mL.

Q: For B4, which EC50 is on record?
A: The EC50 was 0.0288 µg/mL.

Q: For B6, which EC50 is on record?
A: Its EC50 is 0.018 µg/mL.

Q: With B7 as the binder, how does the EC50 read?
A: Its EC50 is 0.0255 µg/mL.

From patent US20230168249A1 (ACADEMIA SINICA, published 2023)
